PMC3303177

What was measured:
[1] = target: His-GAS41 (UniProt O95619 1-227); test: EMSA
[2] = target: GST-AP-2β (UniProt Q92481 1-460); test: EMSA
Sequence of GST-AP-2β (Q92481 whole entry): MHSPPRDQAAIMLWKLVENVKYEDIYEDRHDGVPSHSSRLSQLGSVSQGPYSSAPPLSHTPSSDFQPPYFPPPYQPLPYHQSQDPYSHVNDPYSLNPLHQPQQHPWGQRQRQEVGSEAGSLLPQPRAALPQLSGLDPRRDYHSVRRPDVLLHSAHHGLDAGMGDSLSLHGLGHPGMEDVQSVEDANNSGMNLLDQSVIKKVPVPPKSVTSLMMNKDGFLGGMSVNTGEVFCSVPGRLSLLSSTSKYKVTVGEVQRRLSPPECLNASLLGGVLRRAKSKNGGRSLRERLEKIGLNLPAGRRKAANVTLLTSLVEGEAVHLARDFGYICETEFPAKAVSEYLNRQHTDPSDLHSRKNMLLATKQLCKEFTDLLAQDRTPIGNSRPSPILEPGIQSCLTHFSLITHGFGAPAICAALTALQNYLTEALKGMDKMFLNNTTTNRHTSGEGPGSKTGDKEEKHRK

Sequence of His-GAS41 (O95619 whole entry): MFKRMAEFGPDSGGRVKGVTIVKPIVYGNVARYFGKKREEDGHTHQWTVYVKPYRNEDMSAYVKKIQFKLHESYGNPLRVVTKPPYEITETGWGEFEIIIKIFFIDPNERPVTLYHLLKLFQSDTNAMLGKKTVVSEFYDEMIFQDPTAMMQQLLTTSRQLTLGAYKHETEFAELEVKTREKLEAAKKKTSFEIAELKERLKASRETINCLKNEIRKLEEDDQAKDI

B1: hMT AP-2 consensus probe (dsDNA)
DNA 1: TGACCGCCCGCGGCCCGTG
DNA 2: CACGGGCCGCGGGCGCTCA
binding result [1]: no binding | binding result [2]: binds
